From US20230192803A1 (published 2023)

Tests used:
Ad293 Murine STEAP3-2 = assay: flow cytometry cell binding; Ad293 murine STEAP3-2 chimera cells; affinity calculated from EC50
Ad293 STEAP3-2 = assay: flow cytometry cell binding; Ad293 STEAP3-2 chimera cells; affinity calculated from EC50

B1: 40A3 scFv-Fc (Fc fusion)
scFv: EIVMTQSPATLSVSPGERATLSCRASQSVNSNLAWYQQKPGQAPRLLIYGASTRATGIPARFSGSGSGTEFTLTISSLQSEDFAVYYCQQYNNWPFTFGPGTKVDIKGGGGSGGGGSGGGGSGGGGSQVQLQQSGPGLVKPSQTLSLTCAISGDSVSRNSAVWNWIRQSPSRGLEWLGRTYYRSKWYNDYAVSVKSRITINPDTSKNQFSLQVNSVTPEDTAVYYCARGLLQNNFYYYMDVWGKGTTVTVSS
B1 showed an EC50 (Ad293 Murine STEAP3-2) of 28.2 nM and an EC50 (Ad293 STEAP3-2) of 20.2 nM.
